Experimental findings from patent publication US20200024330A1 are described below.

Broadly, the IC50 is the concentration that inhibits the measured activity by half.

Some results are limits rather than exact numbers.

Assay in all cases: cell-based or functional assay
Assay [1] has as its target HIV-1 92UG005 envelope protein (Env) on pseudovirus (HIV-1).
Assay [2] deals with HIV-1 MGRM-C-014 Env (HIV-1).
Assay [3] addresses HIV-1 IAVI-C22 envelope glycoprotein (Env) on pseudovirus (HIV-1).
Assay [4] has as its target HIV-1 93IN905 envelope protein (Env) on pseudovirus (HIV-1).
The target of assay [5] is aMLV envelope protein on pseudovirus.
The target of assay [6] is HIV-1 MGRM-A-014 envelope glycoprotein (Env) (HIV-1).
The target of assay [7] is aMLV envelope protein on pseudovirus (aMLV).
The target of assay [8] is HIV-1 APV-17 envelope protein (Env) on pseudovirus (HIV-1).
In assay [9] the target is HIV-1 MGRM-C-006 Env (HIV-1).
In assay [10] the target is HIV-1 MGRM-F1-004 Env (pseudovirus) (HIV-1).
Assay [11] concerns the target HIV-1 Env of isolate CMU02 (HIV-1).
In assay [12] the target is HIV-1 92TH021 envelope protein (Env) on pseudovirus (HIV-1).
Assay [13] deals with HIV-1 92TH021 envelope protein (Env) on pseudotyped virus (HIV-1 isolate 92TH021).
Assay [14] concerns the target HIV-1 NL43 envelope protein (Env) on pseudotyped virus (HIV-1 NL43).
Assay [15] concerns the target HIV-1 Env of isolate MG RM-D-019 (subtype D) (HIV-1).
Assay [16] has as its target HIV-1 Env of isolate MGRM-C-025 (pseudovirus) (HIV-1 isolate MGRM-C-025, subtype C).
Assay [17] addresses HIV-1 Env of isolate MGRM-C-017 (pseudovirus) (HIV-1 isolate MGRM-C-017, subtype C).
Assay [18] has as its target HIV-1 TRO.11 Env (pseudovirus) (HIV-1).
Assay [19] deals with HIV-1 Env of isolate MGRM-F1-021 (HIV-1).
The target of assay [20] is HIV-1 Env of isolate MGRM-G-025 (HIV-1).
The target of assay [21] is HIV-1 Env of isolate MGRM-AG-011 (CRF_AG), on pseudovirus (HIV-1).
Assay [22] concerns the target HIV-1 JR-CSF Env D113A (HIV-1 (isolate JR-CSF)) (UniProt P20871).
The target in assay [23] is HIV-1 Env of isolate VLGCB3 (HIV-1).
Assay [24] deals with HIV-1 Env of isolate MGRM-F1-010 (subtype F), on pseudovirus (HIV-1).
For assay [25], the target named is HIV-1 Env of isolate MGRM-C-012 (HIV-1).
Assay [26] addresses HIV-1 Env of isolate 97ZA012 (HIV-1).
The target of assay [27] is HIV-1 APV13 envelope glycoprotein (Env) on pseudovirus (HIV-1).
The target in assay [28] is HIV-1 MGRM-D-018 envelope glycoprotein (Env) on pseudovirus (HIV-1).
In assay [29] the target is HIV-1 MGRM-D-001 envelope glycoprotein (Env) on pseudovirus (HIV-1).
Assay [30] has as its target HIV-1 Env of isolate MGRM-D-024 (HIV-1).
Assay [31] has as its target HIV-1 Env of isolate MGRM-G-014 (subtype G) (HIV-1).
Assay [32] deals with HIV-1 envelope glycoprotein (Env) of isolate MGRM-C-027, on pseudovirus (HIV-1).
Assay [33] concerns the target HIV-1 Env of isolate MGRM-F1-006 (HIV-1).

5329_C19 (PGT-136) (antibody), sequence (VH): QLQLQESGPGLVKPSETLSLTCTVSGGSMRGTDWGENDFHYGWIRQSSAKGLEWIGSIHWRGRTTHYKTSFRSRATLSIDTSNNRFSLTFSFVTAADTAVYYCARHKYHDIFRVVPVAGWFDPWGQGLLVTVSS
5329_C19 (PGT-136) (antibody), sequence (VL): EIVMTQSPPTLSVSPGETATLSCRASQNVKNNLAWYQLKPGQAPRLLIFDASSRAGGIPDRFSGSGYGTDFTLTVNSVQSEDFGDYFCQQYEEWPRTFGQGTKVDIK
1443_C16 (PG16) (TCN-116) (antibody), sequence (VH): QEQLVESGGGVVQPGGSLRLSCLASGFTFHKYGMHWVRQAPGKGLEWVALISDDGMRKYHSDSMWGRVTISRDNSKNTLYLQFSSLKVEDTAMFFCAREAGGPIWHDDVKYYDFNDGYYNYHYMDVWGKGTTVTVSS
1443_C16 (PG16) (TCN-116) (antibody), sequence (VL): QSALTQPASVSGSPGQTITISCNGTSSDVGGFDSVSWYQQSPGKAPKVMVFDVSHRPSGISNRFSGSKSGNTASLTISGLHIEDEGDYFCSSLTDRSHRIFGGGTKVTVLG
5345_I01 (PGT-137) (antibody), sequence (VH): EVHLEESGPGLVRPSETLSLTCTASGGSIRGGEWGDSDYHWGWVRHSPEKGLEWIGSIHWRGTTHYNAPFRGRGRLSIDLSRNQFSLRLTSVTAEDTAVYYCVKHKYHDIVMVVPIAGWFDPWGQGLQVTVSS
5345_I01 (PGT-137) (antibody), sequence (VL): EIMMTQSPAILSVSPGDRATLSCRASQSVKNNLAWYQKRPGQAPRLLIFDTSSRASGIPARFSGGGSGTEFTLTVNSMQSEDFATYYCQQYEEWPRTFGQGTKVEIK

On to 2F5 (antibody), for which the neutralization IC50 was 11.8 µg/mL in [1]; over 50 µg/mL in assay [4]; over 50 µg/mL in assay [5]; 2 µg/mL in [8]; 1.51 µg/mL in assay [12]. The IC50 in assay [2] and in assay [9] was over 50 µg/mL in each case. For the same substance, the IC90 (pseudovirus neutralization) in [3] and in assay [7] was over 50 µg/mL each time. The IC50 (µg/ml), pseudovirus neutralization is 1.43 µg/mL in assay [6], 4.31 µg/mL in assay [10] and 0.6 µg/mL in [11].

Take 2G12 (antibody): the neutralization IC50 in assay [1], in assay [4], in assay [5], in [8] and in assay [12] was over 50 µg/mL in each case. Moreover, the IC50 in assay [2] and in assay [9] was over 50 µg/mL each time. Besides, the IC90 (pseudovirus neutralization) in assay [3] and in assay [7] was over 50 µg/mL throughout. For the same substance, the IC50 (µg/ml), pseudovirus neutralization in assay [6], in assay [10] and in assay [11] was over 50 µg/mL in each case.

Consider 4E10 (antibody), for which the neutralization IC50 in assay [1] is 8.86 µg/mL; in assay [4] it was 1.55 µg/mL; in assay [5], over 50 µg/mL; in [8], 5.1 µg/mL; in assay [12], 1.9 µg/mL. Moreover, the results for the IC50 in assay [2] and in assay [9] were 2.48 µg/mL and 4.94 µg/mL, respectively. The IC90 (pseudovirus neutralization) is 16.4 µg/mL in assay [3] and over 50 µg/mL in assay [7]. Further, the IC50 (µg/ml), pseudovirus neutralization amounted to 1.74 µg/mL in assay [6], 2.74 µg/mL in assay [10] and 0.72 µg/mL in [11].

With 1443_C16 (PG16) (TCN-116) (antibody), the neutralization IC50 in assay [1] is over 50 µg/mL; in assay [4] it was 0.102 µg/mL; in assay [5], over 50 µg/mL; in [8] it was over 50 µg/mL; in [12], 0.127 µg/mL. Besides, the IC50 in assay [2] is over 50 µg/mL; in assay [9], 2.62 µg/mL. Moreover, the IC90 (pseudovirus neutralization) in [3] and in assay [7] was over 50 µg/mL throughout. Also, the IC50 (µg/ml), pseudovirus neutralization in assay [6] is 20.3 µg/mL; in [10] it was 0.43 µg/mL; in [11], 43.6 µg/mL. Besides, the IC50, pseudovirus neutralization, 1 hour Virus/Ab Incubation in [13] is 0.136 µg/mL; in assay [14] it was under 0.0025 µg/mL. The IC50, pseudovirus neutralization, 18 hour Virus/Ab Incubation in assay [13] came to 0.0435 µg/mL; in [14] it was 4.99 µg/mL.

For 1495_C14 (PGC14) (antibody), the neutralization IC50 in assay [1], in assay [4], in [5], in assay [8] and in assay [12] was over 50 µg/mL throughout. Also, the IC50 in assay [2] and in assay [9] was over 50 µg/mL each time. Further, the IC50 (µg/ml), pseudovirus neutralization in assay [6], in assay [10] and in [11] was over 50 µg/mL in each case. Besides, the figures for the IC50, pseudovirus neutralization, 1 hour Virus/Ab Incubation in [13] and in assay [14] were over 50 µg/mL and 0.35 µg/mL, respectively. Also, the figures for the IC50, pseudovirus neutralization, 18 hour Virus/Ab Incubation in assay [13] and in assay [14] were over 50 µg/mL and 0.15 µg/mL, respectively.

In assay [15], 4838_L06 (PGT-121) (antibody) had an IC50 (µg/mL), pseudovirus neutralization of over 50 µg/mL. Further, the IC50 (µg/mL) neutralization stood at 46.8 µg/mL in assay [16] and 0.009 µg/mL in [17]. For the same substance, in [18], the IC50, pseudovirus neutralization worked out at 0.008 µg/mL. The IC50 in [19] came out at 0.099 µg/mL.

With 5114_A19 (PGT-128) (antibody), the figures for the IC50, pseudovirus neutralization in [20] and in assay [24] were 0.017 µg/mL and 16.7 µg/mL, respectively. In assay [21], the IC50, single-round pseudovirus neutralization worked out at 3.93 µg/mL. In [22], the Fold IC50 increase relative to wild-type was 0.5 fold. The IC50 is 0.012 µg/mL in assay [23], 0.058 µg/mL in assay [25] and 0.019 µg/mL in assay [26].

In the case of 5136_H01 (PGT-131) (antibody), the IC50, pseudovirus neutralization is 7.75 µg/mL in assay [20] and over 50 µg/mL in assay [24]. The IC50, single-round pseudovirus neutralization in [21] is over 50 µg/mL. Besides, the IC50 in assay [23] is over 50 µg/mL; in [25], over 50 µg/mL; in assay [26] it was 1.81 µg/mL.

Consider 5147_N06 (PGT-130) (antibody), for which the IC50, pseudovirus neutralization in assay [20] is 8.45 µg/mL; in assay [24], over 50 µg/mL. The IC50, single-round pseudovirus neutralization in [21] is over 50 µg/mL. For the same substance, the IC50 (ug/ml), neutralizing activity is 0.0345 µg/mL in [27], 0.0378 µg/mL in [28] and over 10 µg/mL in assay [29]. This substance had a Fold IC50 increase relative to wild-type in assay [22] of 0.8 fold. Moreover, the IC50 in [23] was 4.6 µg/mL; in assay [25] it was over 50 µg/mL; in assay [26] it was 1.32 µg/mL.

Regarding 5329_C19 (PGT-136) (antibody), the IC50, pseudovirus neutralization in assay [20] and in assay [24] was over 50 µg/mL each time. In addition, in assay [21], the IC50, single-round pseudovirus neutralization was over 50 µg/mL. Moreover, the IC50 in assay [23], in assay [25] and in assay [26] was over 50 µg/mL in each case.

Take 5343_B08 (PGT-135) (antibody): the figures for the IC50, pseudovirus neutralization in assay [20] and in assay [24] were 0.592 µg/mL and over 50 µg/mL, respectively. The IC50, single-round pseudovirus neutralization in [21] is over 50 µg/mL. This substance also showed a Fold IC50 increase relative to wild-type in assay [22] of 0.8 fold. Further, the results for the IC50 in assay [23], in assay [25] and in [26] were 0.142 µg/mL, 0.017 µg/mL and over 50 µg/mL, respectively.

Turning to 5345_I01 (PGT-137) (antibody), the IC50, pseudovirus neutralization in assay [20] and in [24] was over 50 µg/mL in each case. This substance had an IC50, single-round pseudovirus neutralization in [21] of over 50 µg/mL. The IC50 in assay [23] was 3.36 µg/mL; in assay [25], 0.102 µg/mL; in assay [26], over 50 µg/mL.

Turning to VRC01 (antibody), the IC50, pseudovirus neutralization stood at 0.366 µg/mL in [30], 0.125 µg/mL in [32], 2.86 µg/mL in [33] and 0.039 µg/mL in assay [19]. For the same substance, the neutralization IC50 in assay [31] was determined as 0.056 µg/mL; in assay [23], 0.108 µg/mL; in [26], 0.088 µg/mL.

In the case of b12 (antibody), the neutralization IC50 is over 50 µg/mL in assay [1]; 34.1 µg/mL in assay [4]; over 50 µg/mL in [5]; over 25 µg/mL in assay [8]; 9.99 µg/mL in [12]. Moreover, the half-maximal inhibitory concentration (IC50) in [2] and in assay [9] was over 50 µg/mL throughout. Moreover, the IC90 (pseudovirus neutralization) in [3] was 29.6 µg/mL; in [7], over 50 µg/mL. Besides, the IC50 (µg/ml), pseudovirus neutralization is over 50 µg/mL in [6], over 50 µg/mL in assay [10] and 29.3 µg/mL in [11].
